Measurements: the supplement of paper PMC7125110
± gives the standard error. This sample holds only a part of the variants without activity.

B1: glmS ribozyme (parent)
chain: AUAAAAGCGCCAGAACUACAGAAAUGUAGUUGACGAGGAGGAGGUUUAUCGAAUUUUCGGCGGAUGCCUCCAAA

Variants of: B1
Assay: self-cleavage kobs at 10000 uM GlcN6P; higher = faster cleavage; RNA array
Conditions: with glucosamine-6-phosphate
How it was run: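 A hybridised Cy3 probe tracked barcoded ribozyme variants, transcribed in situ by E. coli RNA polymerase on sequenced MiSeq chips, at 37 °C. The variants received 40 μM to 10 mM glucosamine-6-phosphate in HEPES/KCl/Mg(OAc)2 buffer. kobs came from decay fits and kcat and KM from weighted Michaelis–Menten fits.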

Variant	self-cleavage kobs at 10000 uM GlcN6P [s⁻¹]
AUAAAAGCGCUAGAACUACAGAAAUGUAGUGGACGAGGAGGAGGUUUAUCGAAAUUUCGGCGGAUGCCUCCAAA [C11U U31G U54A]	0.0029 ± 0.0008
AUAAAAGCGUCAGAACUACAGAAAUGUAGUCGACGAGGAGGAGGUUUAUCGAAUUUGCGGCGGAUGCCUCCAAA [C10U U31C U57G]	< 1e-05
AUAAAAGCGCCGGAACUACAGAAAUGUAGGUGACGAGGAGGAGGUUCACCGAAUUUUCGGCGGAUGCCUCCAAA [A12G U30G U47C U49C]	< 1e-05
AUAAAAGCGCUAGAACUACAGAAAUGUAGUUGACGAGGAGGAGGUUUAUCGAAUGUUCGGCGGAAGCCUCCAAA [C11U U55G U65A]	4.36e-05 ± 2e-05
AUAAAAGCGCUAGAACUACAGAAAUGUAGUUGACGCGGGGGAGGGUUAUCGAAUUUUCGGUGGAUGCCUCCAAA [C11U A36C A39G U45G C61U]	< 1e-05
AUAAAAGCGUCAGAACUACAGAAAUGUAGUUGACGAAGAGGAGAUUUAUCGAAUUUUCGGCGGAUGCCUUCAAA [C10U G37A G44A C70U]	< 1e-05
AUAAAAGCGCGAGAACUACAGAAAUGUAGUUGACCAGGAGGAGGUUUAUCGAAUUUUCGGCGUAUGACUCCAAA [C11G G35C G63U C67A]	< 1e-05
AUAAAAGCGCUAGAACUACAGAAAUGUAGUUGACGAGGAGGAGGUUUAUCGAAUUUUCGGCGGUUGGCUCCAAA [C11U A64U C67G]	< 1e-05
AUAAAAGCGCCGGCACUACAGAAAUGUAGUUGACGAGGCGGAGUUUUAUCUAAUUUUCGGCGGAUGCCUCCAAA [A12G A14C A39C G44U G51U]	< 1e-05
AUAAAAGCGCCUGAAGUACAGAAAUGUAGUUGACGAGGAUGAGGUUUAUCGAAUUUUCGGCGGAUGCCUCCAAA [A12U C16G G40U]	0.000769 ± 0.00016
AUAAAAGCGCGGGAACUACAGAAAUGUAGUUCACGAGGAGGAGGUUUAUCGAAUUUCCGGCGGAUGCCUCCAAA [C11G A12G G32C U57C]	< 1e-05
AUAAAAGCGCUAGAACUACAGAAAUGUAGUUGACGAGUAGGAGGAUUUUCGAAUUUUCGGCGGAUGCCUCGAAA [C11U G38U U45A A48U C71G]	< 1e-05
AUAAAAGCGCCUGAUCUACAGAAAUGUAAUUGACGAGGAGGAGGUUUAUCGAAUUUUCGGCGGAUGCCUCCAAA [A12U A15U G29A]	0.00126 ± 0.00032
AUAAAAGCGCCCGAACUACAGAAAUGUAGUUGACGAGUAGGAGGUUUAUCGUAUUUUAGGCGGAAGUCUCCAAA [A12C G38U A52U C58A U65A C67U]	< 1e-05
AUAAAAGCGUCACAACUACAGAAAUGUAGUUGACGAGGAGGAGGUUUAUCGAAUUUUCGGCGUAUGCCUCCAAA [C10U G13C G63U]	< 1e-05
AUAAAAGCGCUAGAGUUACAGAAAUGUAGUUGACGAGGAGGAGGUUUAUGGAAGUAUCGGCGGAUGCCCCCAAA [C11U A15G C16U C50G U54G U56A U69C]	< 1e-05
AUAAAAGCGCCGGGACUACAGAAAUGUAGUUGACGAGGAGGAGGUUUAUCGAAUUUUCCGCGGAUGCCUCCAAA [A12G A14G G59C]	0.000119 ± 3.7e-05
AUAAAAGCGUCAGAACUACAGAAAUGUAGUUGACGAGGAGGAAGUUUAUCGAAUUUUCGGCGGAUGCCUCUAAA [C10U G43A C71U]	< 1e-05
AUAAAAGCGCAAGAACUACAGAAAUGUAGUUGACGAGGAGGUGGUUUAUCUAAUUUUCGCCGGAUGCCUCCAAA [C11A A42U G51U G60C]	< 1e-05

Variant	self-cleavage kobs at 10000 uM GlcN6P [s⁻¹]
AUAAAAGCGUCAGACCUACAGAAAUGUAGUCGACGAGGAGGAGGUUUAUCGAAUUUUCGGCGGAUGCCUCCAAA [C10U A15C U31C]	< 1e-05
AUAAAAGCGCCGGAACUACAGAAAUGUAGUUGACGAGGAGGAGGAUUAUCGAAUUUUCGGCGGAUGCCUCUAAA [A12G U45A C71U]	0.00191 ± 0.0004
AUAAAAGCGCAAGAACUACAGAAAUGUAGUUGACGAGGAGGAGGAGUAUCGAAUUUUCGGCGGAUGCCUCCAAA [C11A U45A U46G]	0.000161 ± 4e-05
AUAAAAGCGCCGGCACUACAGAAAUGUAGUCGACGAGGAGGAGGUUGAUCGGAUUUUCAUCGGAUGCCUCCAAA [A12G A14C U31C U47G A52G G59A G60U]	< 1e-05
AUAAAAGCGCCCGAUCUACAGAAAUGUAGUCGACGAGGAGGAGGUUUAUCGAAUUUUCGGCGGAUGCCUCCAAA [A12C A15U U31C]	6.96e-05 ± 1.7e-05
AUAAAAGCGCCUGAACUACAGAAAUGUAGUUGCUGAGGAGGAGGUUUAUCGAAUUUUCGGCGGAUGCCUGCAAA [A12U A33C C34U C70G]	< 1e-05
AUAAAAGCGCGAGAACUACAGAAAUGUAGUUGGCGAGGAUGAGGUUUAUCGAAUUUUCGGCGGAUGCCUUCAAA [C11G A33G G40U C70U]	< 1e-05
AUAAAAGCGCCCGAAGUACAGAAAUGUAGUUGACGAGGAGGAGGUUUAACGAAUUUUCGGCGGAUGCAUCCAAA [A12C C16G U49A C68A]	< 1e-05
AUAAAAGCGCCGGAACUACAGAAAUGUAGUUGACGAGGAGGAGGUUUAUCGAAUUUUAGGCGGAUGCCUCAAAA [A12G C58A C71A]	5.83e-05 ± 1.4e-05
AUAAAAGCGCUAGAACUACAGAAAUGUAAUUGACGAGGCGGAGGUUUAUCGAAUUUUCGGCGGAUGCCUCCAAA [C11U G29A A39C]	3.89e-05 ± 1.6e-05
AUAAAAGCGUCAGAACUACAGAAAUGUAGUUGUCGACGAGGAGGUUUAUCGAUUUUACGGCGGGUGCCUCCAAA [C10U A33U G37C A53U U57A A64G]	< 1e-05
AUAAAAGCGCCUGAAUUACAGAAAUGUAGUUGACGAGGAGGGGGUUUAUCGAAUUUUCGGCGGAUGCCUCCAAA [A12U C16U A42G]	0.0803 ± 0.038
AUAAAAGCGUCACAACUACAGAAAUGUAGUUGACGAGGAGGAGGUUUAUCAAUUUUUCGGCGGGUACCUCCAAA [C10U G13C G51A A53U A64G G66A]	< 1e-05
AUAAAAGCGCCGGAACUACAGAAAUGUAGUUGACGAGGAGGAGUUUUAUCGAAUUUUGGGCGGAUGCCUCCAAA [A12G G44U C58G]	< 1e-05
AUAAAAGCGCCGGAAAUACAGAAAUGUAUUUGACGAGGAGGAGGUUUAUCGAAUUUUCGGCGGAUGCCUCCAAA [A12G C16A G29U]	0.000458 ± 9.3e-05
AUAAAAGCGCCUGAUAUACAGAAAUGUAGUUGACGAGGAGGAGGUUUAUCGAAUUUUCGGCGGAUGCCUCCAAA [A12U A15U C16A]	0.00105 ± 0.00024
AUAAAAGCGCCCGAACUACAGAAAUGUACUUGACGAGGAGGAGGUUUAUCGAAUUUUCGGCGGAUGCCUUCAAA [A12C G29C C70U]	0.00119 ± 0.00031
AUAAAAGCGCAAGAACUACAGAAAUGUAGUUGACGAGGAGGGGGUUUAUCGAAUUUUCGGCGGAUGUCUCCAAA [C11A A42G C67U]	4.66e-05 ± 1.8e-05
